Assay results as given in patent US20210338779A1, “THERAPEUTIC USE OF GLUCAGON AND COMBINATION INCLUDING THE SAME” (HANMI PHARM. CO., LTD, priority 2018, published 2021).
Positions of bridges follow the written chain, without caps; N, C: chain ends. Non-standard residues stand in square brackets, D forms with d. No end group written: not given here. Aib = CC(C)(N)C(=O)O

B1: glucagon derivative of SEQ ID NO: 33 (peptide)
peptide: YXQGTFTSDYSKYLDSRRAQDFVQWLMNT
modifications: X at position 2 = aminoisobutyric acid (Aib)
B2: glucagon derivative of SEQ ID NO: 38 (peptide)
peptide: Y[Aib]QGTFCSDYSKYLDERRAKEFVQWLMNT
modifications: lactam 16-20
B3: glucagon derivative of SEQ ID NO: 11 (peptide)
peptide: Y[Aib]QGTFTSDYSKYLDEKCAKEFVQWLMNT
B4: glucagon derivative of SEQ ID NO: 40 (peptide)
peptide: Y[Aib]QGTFVSDYSKYLDERRAKDFVQWLMNTC
modifications: lactam 16-20
B5: glucagon derivative of SEQ ID NO: 14 (peptide)
peptide: Y[Aib]QGTFTSDYSKYLDCKRAKEFVQWLMNT
B6: glucagon derivative of SEQ ID NO: 17 (peptide)
peptide: Y[Aib]QGTFTSDYSKYLDCVRAQDFVQWLMRT
B7: glucagon derivative of SEQ ID NO: 21 (peptide)
peptide: Y[Aib]QGTFTSDYSKYLDEKCAKEFVQWLMNT
modifications: lactam 16-20
B8: glucagon derivative of SEQ ID NO: 27 (peptide)
peptide: Y[Aib]QGTFVSDYSKYLDECRAKDFVQWLMNT
modifications: lactam 16-20
B9: glucagon derivative of SEQ ID NO: 42 (peptide)
peptide: Y[Aib]QGTFCSDYSKYLDSRRAQDFVQWLMNT
B10: glucagon derivative of SEQ ID NO: 29 (peptide)
peptide: Y[Aib]QGTFTSDYSKCLDERRAKDFVQWLMNT
modifications: lactam 16-20
B11: glucagon derivative of SEQ ID NO: 18 (peptide)
peptide: Y[Aib]QGTFTSDYSKYLDSRRACDFRLWLMNT
B12: glucagon derivative of SEQ ID NO: 2 (peptide)
peptide: HSQGTFTSDYSKYLDCDRAQDFVQWLMNT
B13: glucagon derivative of SEQ ID NO: 15 (peptide)
peptide: Y[Aib]QGTFTSDYSKYLCEKRAQDFVVWLMNT
B14: glucagon derivative of SEQ ID NO: 9 (peptide)
peptide: Y[Aib]QGTFTSDYSKYLDSCDAQDFVVWLINT
B15: glucagon derivative of SEQ ID NO: 20 (peptide)
peptide: Y[Aib]QGTFTSDYSKYLDECRAKEFVQWLMNT
modifications: lactam 16-20
B16: glucagon derivative of SEQ ID NO: 25 (peptide)
peptide: Y[Aib]QGTFTSDYSKYLDEKRAKCFVQWLMNT
modifications: lactam 16-20
B17: glucagon derivative of SEQ ID NO: 31 (peptide)
peptide: Y[Aib]QGTFTSDYSKYLDCKRAKEFVQWLMNT
modifications: lactam 17-21
B18: glucagon derivative of SEQ ID NO: 3 (peptide)
peptide: HSQGTFTSDYSKYLDCERAQDFVQWLMNT
B19: glucagon derivative of SEQ ID NO: 30 (peptide)
peptide: W[Aib]QGTFTSDYSKCLDERRAKDFVQWLMNT
modifications: lactam 16-20
B20: glucagon derivative of SEQ ID NO: 34 (peptide)
peptide: W[Aib]QGTFTSDYSKYCDERRAKEFVQWLMNT
modifications: lactam 16-20
B21: glucagon derivative of SEQ ID NO: 41 (peptide)
peptide: Y[Aib]QGTFCSDYSKYLDERRAKDFVQWLMNT
modifications: lactam 16-20
B22: glucagon derivative of SEQ ID NO: 35 (peptide)
peptide: Y[Aib]QGTFTSDYSKYCDERRAKEFVQWLMNT
modifications: lactam 16-20
B23: glucagon derivative of SEQ ID NO: 19 (peptide)
peptide: Y[Aib]QGTFTSDYSKYLCEKRAKEFVQWLMNT
modifications: lactam 16-20
B24: glucagon derivative of SEQ ID NO: 36 (peptide)
peptide: Y[Aib]QGTFTSDCSKYLDERRAKEFVQWLMNT
modifications: lactam 16-20
B25: glucagon derivative of SEQ ID NO: 26 (peptide)
peptide: W[Aib]QGTFTSDYSKYLDECRAKDFVQWLMNT
modifications: lactam 16-20
B26: glucagon derivative of SEQ ID NO: 23 (peptide)
peptide: Y[Aib]QGTFTSDYSKYCDEKRAKEFVQWLMNT
modifications: lactam 16-20
B27: glucagon derivative of SEQ ID NO: 22 (peptide)
peptide: Y[Aib]QGTFTSDYSKYLDEKRCKEFVQWLMNT
modifications: lactam 16-20
B28: glucagon derivative of SEQ ID NO: 32 (peptide)
peptide: SQGTFTSDYSKYLDECRAKEFVQWLMNT
modifications: lactam 15-19
B29: glucagon derivative of SEQ ID NO: 10 (peptide)
peptide: Y[Aib]QGTFTSDYSKYLDSCDADDFVVWLINT
B30: glucagon derivative of SEQ ID NO: 28 (peptide)
peptide: W[Aib]QGTFVSDYSKYLDECRAKDFVQWLMNT
modifications: lactam 16-20
B31: glucagon derivative of SEQ ID NO: 24 (peptide)
peptide: Y[Aib]QGTFTSDYSKCLDEKRAKEFVQWLMNT
modifications: lactam 16-20
B32: glucagon derivative of SEQ ID NO: 16 (peptide)
peptide: Y[Aib]QGTFTSDYSKYLDCRRAQVFVQWLMRT
B33: glucagon derivative of SEQ ID NO: 12 (peptide)
peptide: Y[Aib]QGTFTSDYSKYLDEKRAKEFVQWLMNTC
modifications: lactam 16-20
B34: glucagon derivative of SEQ ID NO: 39 (peptide)
peptide: Y[Aib]QGTFVSDCSKYLDERRAKDFVQWLMNT
modifications: lactam 16-20

Target: human glucagon receptor (human, UniProt P47871 26-477)
Experiment: cell-based or functional assay

Chain of human glucagon receptor (P47871 26-477): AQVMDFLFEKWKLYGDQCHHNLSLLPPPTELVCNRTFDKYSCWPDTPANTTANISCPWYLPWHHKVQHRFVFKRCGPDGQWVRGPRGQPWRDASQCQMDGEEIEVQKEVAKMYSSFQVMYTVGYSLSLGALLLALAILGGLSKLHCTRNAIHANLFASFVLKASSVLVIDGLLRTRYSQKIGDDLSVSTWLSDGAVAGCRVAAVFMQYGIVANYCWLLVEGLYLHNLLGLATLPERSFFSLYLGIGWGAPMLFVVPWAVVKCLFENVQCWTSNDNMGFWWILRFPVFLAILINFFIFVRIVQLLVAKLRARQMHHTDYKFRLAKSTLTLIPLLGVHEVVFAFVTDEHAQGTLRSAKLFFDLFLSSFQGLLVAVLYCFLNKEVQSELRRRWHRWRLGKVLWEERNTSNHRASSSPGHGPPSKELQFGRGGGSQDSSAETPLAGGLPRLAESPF

| Binder | in vitro activity (%, relative to SEQ ID NO: 1); cAMP assay, from EC50 [%] |
| --- | --- |
| B1 | 108 |
| B2 | 167 |
| B3 | 4.6 |
| B4 | 40.8 |
| B5 | 18.1 |
| B6 | 23.2 |
| B7 | 57.8 |
| B8 | 93.6 |
| B9 | 37.9 |
| B10 | 61.3 |
| B11 | < 0.1 |
| B12 | 0.6 |
| B13 | 1.1 |
| B14 | < 0.1 |
| B15 | 300 |
| B16 | 46.9 |
| B17 | 6.3 |

| Binder | in vitro activity (%, relative to SEQ ID NO: 1); cAMP assay, from EC50 [%] |
| --- | --- |
| B18 | 6.1 |
| B19 | 0.3 |
| B20 | 0.2 |
| B21 | 45.2 |
| B22 | 17.7 |
| B23 | 12.1 |
| B24 | 9.9 |
| B25 | 1 |
| B26 | 76.8 |
| B27 | 148 |
| B28 | 0.7 |
| B29 | < 0.1 |
| B30 | < 0.1 |
| B31 | 58 |
| B32 | 4.2 |
| B33 | 56.3 |
| B34 | 3.7 |
